Assay results as given in the Human Domainome abundance scans (Beltran et al. 2025).
± gives the uncertainty stated by the source.

B1: Ras GTPase-activating protein 1, residues 281 to 341; numbered along this chain, P20936 (parent)
chain: RRRVRAILPYTKVPDTDEISFLKGDMFIVHNELEDGWMWVTNLRTDEQGLIVEDLVEEVGR

Variants of: B1
Test: abundance fitness (aPCA) (normalised: wild type 0, dead -1); higher = more abundant; growth selection in yeast, the domain comes from the species named
Conditions: Homo sapiens

RRRVRAICPYTKVPDTDEISFLKGDMFIVHNELEDGWMWVTNLRTDEQGLIVEDLVEEVGR [L8C] and RRRVRAIKPYTKVPDTDEISFLKGDMFIVHNELEDGWMWVTNLRTDEQGLIVEDLVEEVGR [L8K] are within error of each other in abundance fitness: -0.052 ± 0.026 for the first, -0.129 ± 0.054 for the second.

First: RRRVRAILPYTKVPDTDEISFLKGDMFIVHNELEDGKMWVTNLRTDEQGLIVEDLVEEVGR [W37K]
Second: RRRVRAILPYTKVPDTDEISFLKGDMFIVHNELEDGEMWVTNLRTDEQGLIVEDLVEEVGR [W37E]
The abundance fitness of the first is higher: 0.121 ± 0.037 for the first, -0.176 ± 0.036 for the second.

First: RRRVRAILPYTKVPDTDEISFLKGDMFIVHNELEDGAMWVTNLRTDEQGLIVEDLVEEVGR [W37A]
Second: RRRVRAILPYTKVPDTDEIFFLKGDMFIVHNELEDGWMWVTNLRTDEQGLIVEDLVEEVGR [S20F]
The abundance fitness of the first is higher: -0.014 ± 0.021 for the first, -0.877 ± 0.067 for the second.

RRRVRAILPYTKVPDTDEIVFLKGDMFIVHNELEDGWMWVTNLRTDEQGLIVEDLVEEVGR [S20V] and RRRVRAILPYTKVPDTDEIYFLKGDMFIVHNELEDGWMWVTNLRTDEQGLIVEDLVEEVGR [S20Y] are within error of each other in abundance fitness: -0.972 ± 0.057 for the first, -0.881 ± 0.063 for the second.

Compared with RRRVRAILPYTKVPTTDEISFLKGDMFIVHNELEDGWMWVTNLRTDEQGLIVEDLVEEVGR [D15T], TRRVRAILPYTKVPDTDEISFLKGDMFIVHNELEDGWMWVTNLRTDEQGLIVEDLVEEVGR [R1T] is higher in abundance fitness: -0.213 ± 0.048 for the first, 0.029 ± 0.04 for the second.

Going from RRRVRAILPYTKVPDTDEISFLKGDMFIVHNELEDGWMWVTNLRTDEQGLIVEDLVEEVGH [R61H] to RRRVRAILPYIKVPDTDEISFLKGDMFIVHNELEDGWMWVTNLRTDEQGLIVEDLVEEVGR [T11I], the abundance fitness falls from 0.012 ± 0.032 to -0.055 ± 0.028.

Going from RRRVRAILPYSKVPDTDEISFLKGDMFIVHNELEDGWMWVTNLRTDEQGLIVEDLVEEVGR [T11S] to RRRVRAILPYDKVPDTDEISFLKGDMFIVHNELEDGWMWVTNLRTDEQGLIVEDLVEEVGR [T11D], the abundance fitness rises from -0.05 ± 0.024 to 0.016 ± 0.034.

First: RRRVRAILPYTKVPDTDEISFLGGDMFIVHNELEDGWMWVTNLRTDEQGLIVEDLVEEVGR [K23G]
Second: RRRVRAILPYTKVPDTDEISFLKGDMFIVHNELEDGWMWVTNNRTDEQGLIVEDLVEEVGR [L43N]
The abundance fitness of the first is higher: -0.23 ± 0.025 for the first, -0.388 ± 0.036 for the second.

Compared with RRRVRAILPYTKVPDTDEISFLKGDMFIVHNELEDGWMWVTNIRTDEQGLIVEDLVEEVGR [L43I], RRRVRAILPYTKVPDTDEISFLKGDMFIVHNELEDGWMWVTYLRTDEQGLIVEDLVEEVGR [N42Y] is lower in abundance fitness: -0.012 ± 0.029 for the first, -0.969 ± 0.057 for the second.

Going from RRRVRAILPYTKVPDTDEISFLKGDMFIVHNELEDGWMWVTDLRTDEQGLIVEDLVEEVGR [N42D] to RRRVRAILPYTKVPDTDEISFLKGDMFIVHNELEDGWMWVTNLRTDEQGLIVEDLVAEVGR [E57A], the abundance fitness rises from -0.585 ± 0.032 to -0.232 ± 0.048.

Compared with RRRVRAILPYTKVPDTDEISFLKGDMFIVHNELEDGWMWVTNLRTDEQGLIVEDLVEQVGR [E58Q], RRRVRAILPYTKVPDTDEISFLKGVMFIVHNELEDGWMWVTNLRTDEQGLIVEDLVEEVGR [D25V] is lower in abundance fitness: -0.113 ± 0.069 for the first, -0.904 ± 0.046 for the second.

Compared with RRRVRAILPYTKVPDTDEISFLKGDMFIVHNELEDGWMWETNLRTDEQGLIVEDLVEEVGR [V40E], RRRVRAILPYTKVPDTDEISFLKGDMFIVHNELEQGWMWVTNLRTDEQGLIVEDLVEEVGR [D35Q] is higher in abundance fitness: -1.13 ± 0.24 for the first, 0.007 ± 0.07 for the second.

RRRVRAILPYTKVPDTDEISFLKGDMFIVHNELENGWMWVTNLRTDEQGLIVEDLVEEVGR [D35N] and RRRVRAILPYTKVPDTDEISFLKGDMFIVHNELPDGWMWVTNLRTDEQGLIVEDLVEEVGR [E34P] are within error of each other in abundance fitness: -0.025 ± 0.03 for the first, 0.03 ± 0.048 for the second.

First: RRRVRAILPYTKVPDTDEISFLKGDKFIVHNELEDGWMWVTNLRTDEQGLIVEDLVEEVGR [M26K]
Second: RRRVRAILPYTKVPDTDEISFLKGDYFIVHNELEDGWMWVTNLRTDEQGLIVEDLVEEVGR [M26Y]
The abundance fitness of the first is lower: -0.333 ± 0.083 for the first, -0.028 ± 0.029 for the second.

First: RRTVRAILPYTKVPDTDEISFLKGDMFIVHNELEDGWMWVTNLRTDEQGLIVEDLVEEVGR [R3T]
Second: RRRERAILPYTKVPDTDEISFLKGDMFIVHNELEDGWMWVTNLRTDEQGLIVEDLVEEVGR [V4E]
The abundance fitness of the first is higher: -0.136 ± 0.037 for the first, -0.929 ± 0.074 for the second.

First: RRRTRAILPYTKVPDTDEISFLKGDMFIVHNELEDGWMWVTNLRTDEQGLIVEDLVEEVGR [V4T]
Second: RRRFRAILPYTKVPDTDEISFLKGDMFIVHNELEDGWMWVTNLRTDEQGLIVEDLVEEVGR [V4F]
The abundance fitness of the first is lower: -0.605 ± 0.027 for the first, -0.082 ± 0.021 for the second.

RRRVRAILPYTKVPDTDEISFLKGDMFIVHNELEDGWMWVTNLRTDEQGLTVEDLVEEVGR [I51T] and RRRVRAILPYTKVPDTDEISFLKGDMFIVHNELEDGWMWVTNLRTDEQGLHVEDLVEEVGR [I51H] are within error of each other in abundance fitness: -0.784 ± 0.054 for the first, -0.857 ± 0.054 for the second.

Going from RRRVRAILPYTKVPDTDEISFLKGDMFIVHNELEDGWMWVTNLRTDEQGLYVEDLVEEVGR [I51Y] to RRRVRAILPYTKVPDTDEISFLKGDMFMVHNELEDGWMWVTNLRTDEQGLIVEDLVEEVGR [I28M], the abundance fitness rises from -0.834 ± 0.048 to -0.029 ± 0.031.

Going from RRRVRAILPYTKVPDTDEISFLKGDMFIQHNELEDGWMWVTNLRTDEQGLIVEDLVEEVGR [V29Q] to RRRVRAILPYTKVPDTDEISFLKGDMFIVHNELEDGWMWVTNLRTDEIGLIVEDLVEEVGR [Q48I], the abundance fitness rises from -0.954 ± 0.16 to -0.084 ± 0.027.

RRRVRAILPYTKAPDTDEISFLKGDMFIVHNELEDGWMWVTNLRTDEQGLIVEDLVEEVGR [V13A] and RRRVRAILPYTKDPDTDEISFLKGDMFIVHNELEDGWMWVTNLRTDEQGLIVEDLVEEVGR [V13D] are within error of each other in abundance fitness: 0.018 ± 0.036 for the first, -0.047 ± 0.033 for the second.

First: RRRVRAILPYTKGPDTDEISFLKGDMFIVHNELEDGWMWVTNLRTDEQGLIVEDLVEEVGR [V13G]
Second: RRRVRAILPYTKWPDTDEISFLKGDMFIVHNELEDGWMWVTNLRTDEQGLIVEDLVEEVGR [V13W]
The abundance fitness of the first is higher: -0.04 ± 0.025 for the first, -0.152 ± 0.058 for the second.

RRRVRAILPYTKVPDTDEISFLKGDMFIVHNENEDGWMWVTNLRTDEQGLIVEDLVEEVGR [L33N] showed an abundance fitness of -0.158 ± 0.03.
